Reference: PMC3601010, “The complete N-terminal extension of heparin cofactor II is required for maximal effectiveness as a thrombin exosite 1 ligand” (BMC Biochemistry, 2013)

Experiments:
α-thrombin [1] = biological target: α-thrombin (UniProt P00734)
α-thrombin [2] = biological target: α-thrombin (UniProt P00734); assay: SPR; competition: BIAcore X, 25°C; biotinylated HCII 1-75 on streptavidin-coated chip; peptides combined with 250 nM thrombin immediately before flowing over the chip; Ki from IC50 and the KD of 340 nM
α-thrombin [3] = biological target: α-thrombin (UniProt P00734); assay: ELISA; competition: HCII 1-75 immobilised on microtiter wells; competitor peptides added with 5 nM α-thrombin; ratio of absorbance with and without competitor; IC50 by linear regression of log-transformed plots
[4] = biological target: Biotinylated HCII 1-75 (human); assay: SPR; BIAcore X, 25°C; biotinylated HCII 1-75 on streptavidin-coated chip; thrombin 0-30 μM flowed at 20 μL/minute in 10 mM HEPES, 150 mM NaCl, 0.005% Tween-20, pH 7.7; one site binding model of plateau responses
α-thrombin [5] = biological target: α-thrombin (UniProt P00734); remark: listed apart in the source
α-thrombin [6] = biological target: α-thrombin (UniProt P00734); remark: listed apart in the source

Row | Substance | Kd [4] | concentration required to double the thrombin clotting time of diluted citrated human plasma (α-thrombin [1]) | Ki (α-thrombin [2]) | IC50 (α-thrombin [3]) | other results
1 | sulfo-Hir 54-65 (synthetic peptide containing the C-terminal 12 residues of hirudin variant 1, with Tyr63 sulfated) (from UniProt P01050 54-65) |  | 0.15 µM | 54 nM | 140 nM | 
2 | Biotinylated HCII 1-75 (domain or fragment) |  |  |  |  | concentration required to double the thrombin clotting time (data not shown) (α-thrombin [5]): 11.7 µM
3 | HCII 1-75 (recombinant peptide containing the first 75 residues of human heparin cofactor II and a nonapeptide N-terminal MGSH6 tag) (domain or fragment) |  | 13 µM | 2600 nM | 11000 nM | fold reduction of the apparent second-order rate constant of inhibition of 14 nM thrombin by 140 nM plasma-derived HCII with 55 μg/mL standard heparin, 250 μM peptide (Figure 5A) (α-thrombin [6]): 2.8 fold; fold reduction of the apparent second-order rate constant of inhibition of thrombin by plasma-derived HCII with 1.4 μM dermatan sulfate, 250 μM peptide (Figure 5B) (α-thrombin [6]): 7 fold; concentration required to double the thrombin clotting time, unmodified polypeptide compared with the biotinylated one (data not shown) (α-thrombin [5]): 12.8 µM

More lines, main results first:

Row | Kd [4] | Substance | concentration required to double the thrombin clotting time of diluted citrated human plasma (α-thrombin [1]) | Ki (α-thrombin [2]) | IC50 (α-thrombin [3]) | other results
4 | 340 nM | α-thrombin (from UniProt P00734 364-622) (enzyme) |  |  |  | 
5 | 330 nM | FPR-ck-thrombin (thrombin inactivated at its active site using D-Phe-L-Pro-L-Arg chloromethylketone) (from UniProt P00734 364-622) (enzyme) |  |  |  | 
